Results published in patent US5558865.

Legend:
[1] = biological target: peptide of amino acids 322-336 of HIV-1MN gp120 (HIV-1 strain MN); test: peptide ELISA, 500 ng MIgG
[2] = biological target: peptide of amino acids 302-316 of HIV-1MN gp120 (HIV-1 strain MN); test: peptide ELISA, 500 ng MIgG
[3] = biological target: peptide of amino acids 312-326 of HIV-1MN gp120 (HIV-1 strain MN); test: peptide ELISA, 500 ng MIgG
[4] = biological target: native HIV-1MN gp120 (HIV-1 strain MN) (UniProt P05877)
[5] = biological target: native HIV-1IIIB gp120 (HIV-1 strain IIIB) (UniProt P04578)
[6] = biological target: native HIV-1MN gp120 (HIV-1 strain MN) (UniProt P05877); remark: listed apart in the source
[7] = biological target: native HIV-1IIIB gp120 (HIV-1 strain IIIB) (UniProt P04578); remark: listed apart in the source
[8] = biological target: gp120 of HIV-1 strain RF (HIV-1 strain RF)

Chain of monoclonal antibody NM-01 (VH): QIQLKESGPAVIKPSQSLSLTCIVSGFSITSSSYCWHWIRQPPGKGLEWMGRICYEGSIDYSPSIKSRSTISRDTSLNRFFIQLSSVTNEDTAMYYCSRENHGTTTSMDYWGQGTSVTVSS
Chain of monoclonal antibody NM-01 (VL): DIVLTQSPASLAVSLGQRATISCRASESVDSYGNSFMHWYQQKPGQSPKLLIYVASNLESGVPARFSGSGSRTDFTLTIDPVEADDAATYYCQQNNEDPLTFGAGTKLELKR

“mouse IgG (polyclonal serum or antibody)” gave an optical density at 650 nm [1] of 0.042 OD 650 nm, an optical density at 650 nm [2] of 0.049 OD 650 nm and an optical density at 650 nm [3] of 0.043 OD 650 nm.
For monoclonal antibody NM-01, the ID50, syncytium formation of MN-infected H9 cells with C8166 cells [4] was 2 µg/mL, the ID50, syncytium formation of IIIB-infected H9 cells with C8166 cells [5] was 3 µg/mL and the ID50, MT-2 assay (cell viability by MTT), live MN virus [6] was 2 µg/mL. For the same substance, the ID50, MT-2 assay (cell viability by MTT), live IIIB virus [7] was 0.1 µg/mL and the ID50, syncytium formation of RF-infected cells [8] was 4 µg/mL.
